Experimental data reported in US20150299281A1 (ZEALAND PHARMA A S, published 2015).
Numbered stars: 1 amine (or outer) side, 2 acyl side, 3 side chain; on linkers, the order of the positions; unused ones are H or OH. Square brackets hold non-standard residues; d marks the D form. Side chains are listed from the residue outwards. * marks the point of attachment. γGlu = O=C(O)[C@H](CCC(=O)[*:2])N[*:1]; Palmitoyl = CCCCCCCCCCCCCCCC(=O)*; pGlu = O=C1CC[C@@H](C(=O)O)N1; Aib = CC(C)(N)C(=O)O

Experiments:
human GIP receptor = target: T1, human GIP receptor (human, UniProt P48546 22-466); experiment: cell-based or functional assay
T1 sequence (looked up): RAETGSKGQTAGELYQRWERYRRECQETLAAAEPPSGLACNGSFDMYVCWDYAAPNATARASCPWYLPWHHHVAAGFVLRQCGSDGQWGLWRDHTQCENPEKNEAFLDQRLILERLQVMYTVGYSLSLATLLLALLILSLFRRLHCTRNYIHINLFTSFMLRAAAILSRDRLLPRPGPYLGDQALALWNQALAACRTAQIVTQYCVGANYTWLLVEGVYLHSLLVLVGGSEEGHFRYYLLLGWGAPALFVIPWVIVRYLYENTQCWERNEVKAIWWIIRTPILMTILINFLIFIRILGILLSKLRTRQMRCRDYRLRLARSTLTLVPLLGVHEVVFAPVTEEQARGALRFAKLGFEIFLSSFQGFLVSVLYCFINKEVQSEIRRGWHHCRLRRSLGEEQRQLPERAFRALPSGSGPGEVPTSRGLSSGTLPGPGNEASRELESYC

human GLP-1 receptor = human GLP-1 receptor (human, UniProt P43220 24-463); experiment: cell-based or functional assay

B1: Compound 54 (peptide)
peptide: H-Y[Aib]EGTFTSDYSIYLEKK([γGlu-Palmitoyl])AAKEFVEWLLSAGPSSGAPPPS-NH2
SMILES: CCCCCCCCCCCCCCCC(=O)N[C@@H](CCC(=O)NCCCC[C@H](NC(=O)[C@H](CCCCN)NC(=O)[C@H](CCC(=O)O)NC(=O)[C@H](CC(C)C)NC(=O)[C@H](Cc1ccc(O)cc1)NC(=O)[C@@H](NC(=O)[C@H](CO)NC(=O)[C@H](Cc1ccc(O)cc1)NC(=O)[C@H](CC(=O)O)NC(=O)[C@H](CO)NC(=O)[C@@H](NC(=O)[C@H](Cc1ccccc1)NC(=O)[C@@H](NC(=O)CNC(=O)[C@H](CCC(=O)O)NC(=O)C(C)(C)NC(=O)[C@@H](N)Cc1ccc(O)cc1)[C@@H](C)O)[C@@H](C)O)[C@@H](C)CC)C(=O)N[C@@H](C)C(=O)N[C@@H](C)C(=O)N[C@@H](CCCCN)C(=O)N[C@@H](CCC(=O)O)C(=O)N[C@@H](Cc1ccccc1)C(=O)N[C@H](C(=O)N[C@@H](CCC(=O)O)C(=O)N[C@@H](Cc1c[nH]c2ccccc12)C(=O)N[C@@H](CC(C)C)C(=O)N[C@@H](CC(C)C)C(=O)N[C@@H](CO)C(=O)N[C@@H](C)C(=O)NCC(=O)N1CCC[C@H]1C(=O)N[C@@H](CO)C(=O)N[C@@H](CO)C(=O)NCC(=O)N[C@@H](C)C(=O)N1CCC[C@H]1C(=O)N1CCC[C@H]1C(=O)N1CCC[C@H]1C(=O)N[C@@H](CO)C(N)=O)C(C)C)C(=O)O
- EC50, cAMP induction in HEK293 cells expressing human GIP R (human GIP receptor): 0.037 nM
- EC50, cAMP induction in HEK293 cells expressing human GLP-1 R (human GLP-1 receptor): 0.033 nM

B2: Compound 7 (peptide)
peptide: H-YGEGTFTSDYSIYLDKKAQRAFVNWLLA[Aib]K-NH2
SMILES: CC[C@H](C)[C@H](NC(=O)[C@H](CO)NC(=O)[C@H](Cc1ccc(O)cc1)NC(=O)[C@H](CC(=O)O)NC(=O)[C@H](CO)NC(=O)[C@@H](NC(=O)[C@H](Cc1ccccc1)NC(=O)[C@@H](NC(=O)CNC(=O)[C@H](CCC(=O)O)NC(=O)CNC(=O)[C@@H](N)Cc1ccc(O)cc1)[C@@H](C)O)[C@@H](C)O)C(=O)N[C@@H](Cc1ccc(O)cc1)C(=O)N[C@@H](CC(C)C)C(=O)N[C@@H](CC(=O)O)C(=O)N[C@@H](CCCCN)C(=O)N[C@@H](CCCCN)C(=O)N[C@@H](C)C(=O)N[C@@H](CCC(N)=O)C(=O)N[C@@H](CCCNC(=N)N)C(=O)N[C@@H](C)C(=O)N[C@@H](Cc1ccccc1)C(=O)N[C@H](C(=O)N[C@@H](CC(N)=O)C(=O)N[C@@H](Cc1c[nH]c2ccccc12)C(=O)N[C@@H](CC(C)C)C(=O)N[C@@H](CC(C)C)C(=O)N[C@@H](C)C(=O)NC(C)(C)C(=O)N[C@@H](CCCCN)C(N)=O)C(C)C
- EC50, cAMP induction in HEK293 cells expressing human GIP R (human GIP receptor): 0.21 nM
- EC50, cAMP induction in HEK293 cells expressing human GLP-1 R (human GLP-1 receptor): 0.024 nM

B3: Compound 55 (peptide)
peptide: H-Y[Aib]EGTFTSDYSIYLDSKAAHDFVEWLLSAGPSSGAPPPS-NH2
SMILES: CC[C@H](C)[C@H](NC(=O)[C@H](CO)NC(=O)[C@H](Cc1ccc(O)cc1)NC(=O)[C@H](CC(=O)O)NC(=O)[C@H](CO)NC(=O)[C@@H](NC(=O)[C@H](Cc1ccccc1)NC(=O)[C@@H](NC(=O)CNC(=O)[C@H](CCC(=O)O)NC(=O)C(C)(C)NC(=O)[C@@H](N)Cc1ccc(O)cc1)[C@@H](C)O)[C@@H](C)O)C(=O)N[C@@H](Cc1ccc(O)cc1)C(=O)N[C@@H](CC(C)C)C(=O)N[C@@H](CC(=O)O)C(=O)N[C@@H](CO)C(=O)N[C@@H](CCCCN)C(=O)N[C@@H](C)C(=O)N[C@@H](C)C(=O)N[C@@H](Cc1c[nH]cn1)C(=O)N[C@@H](CC(=O)O)C(=O)N[C@@H](Cc1ccccc1)C(=O)N[C@H](C(=O)N[C@@H](CCC(=O)O)C(=O)N[C@@H](Cc1c[nH]c2ccccc12)C(=O)N[C@@H](CC(C)C)C(=O)N[C@@H](CC(C)C)C(=O)N[C@@H](CO)C(=O)N[C@@H](C)C(=O)NCC(=O)N1CCC[C@H]1C(=O)N[C@@H](CO)C(=O)N[C@@H](CO)C(=O)NCC(=O)N[C@@H](C)C(=O)N1CCC[C@H]1C(=O)N1CCC[C@H]1C(=O)N1CCC[C@H]1C(=O)N[C@@H](CO)C(N)=O)C(C)C
- EC50, cAMP induction in HEK293 cells expressing human GIP R (human GIP receptor): 0.0071 nM
- EC50, cAMP induction in HEK293 cells expressing human GLP-1 R (human GLP-1 receptor): 0.0087 nM

B4: Compound 52 (peptide)
peptide: H-Y[Aib]EGTFTSDYSIYLDEK([γGlu-Palmitoyl])AAKDFVEWLLSA-NH2
SMILES: CCCCCCCCCCCCCCCC(=O)N[C@@H](CCC(=O)NCCCC[C@H](NC(=O)[C@H](CCC(=O)O)NC(=O)[C@H](CC(=O)O)NC(=O)[C@H](CC(C)C)NC(=O)[C@H](Cc1ccc(O)cc1)NC(=O)[C@@H](NC(=O)[C@H](CO)NC(=O)[C@H](Cc1ccc(O)cc1)NC(=O)[C@H](CC(=O)O)NC(=O)[C@H](CO)NC(=O)[C@@H](NC(=O)[C@H](Cc1ccccc1)NC(=O)[C@@H](NC(=O)CNC(=O)[C@H](CCC(=O)O)NC(=O)C(C)(C)NC(=O)[C@@H](N)Cc1ccc(O)cc1)[C@@H](C)O)[C@@H](C)O)[C@@H](C)CC)C(=O)N[C@@H](C)C(=O)N[C@@H](C)C(=O)N[C@@H](CCCCN)C(=O)N[C@@H](CC(=O)O)C(=O)N[C@@H](Cc1ccccc1)C(=O)N[C@H](C(=O)N[C@@H](CCC(=O)O)C(=O)N[C@@H](Cc1c[nH]c2ccccc12)C(=O)N[C@@H](CC(C)C)C(=O)N[C@@H](CC(C)C)C(=O)N[C@@H](CO)C(=O)N[C@@H](C)C(N)=O)C(C)C)C(=O)O
- EC50, cAMP induction in HEK293 cells expressing human GIP R (human GIP receptor): 0.087 nM
- EC50, cAMP induction in HEK293 cells expressing human GLP-1 R (human GLP-1 receptor): 0.18 nM

B5: Compound 53 (peptide)
peptide: H-Y[Aib]EGTFTSDYSIYLDSK([γGlu-Palmitoyl])AAHDFVEWLLSAGPSSGAPPPS-NH2
SMILES: CCCCCCCCCCCCCCCC(=O)N[C@@H](CCC(=O)NCCCC[C@H](NC(=O)[C@H](CO)NC(=O)[C@H](CC(=O)O)NC(=O)[C@H](CC(C)C)NC(=O)[C@H](Cc1ccc(O)cc1)NC(=O)[C@@H](NC(=O)[C@H](CO)NC(=O)[C@H](Cc1ccc(O)cc1)NC(=O)[C@H](CC(=O)O)NC(=O)[C@H](CO)NC(=O)[C@@H](NC(=O)[C@H](Cc1ccccc1)NC(=O)[C@@H](NC(=O)CNC(=O)[C@H](CCC(=O)O)NC(=O)C(C)(C)NC(=O)[C@@H](N)Cc1ccc(O)cc1)[C@@H](C)O)[C@@H](C)O)[C@@H](C)CC)C(=O)N[C@@H](C)C(=O)N[C@@H](C)C(=O)N[C@@H](Cc1c[nH]cn1)C(=O)N[C@@H](CC(=O)O)C(=O)N[C@@H](Cc1ccccc1)C(=O)N[C@H](C(=O)N[C@@H](CCC(=O)O)C(=O)N[C@@H](Cc1c[nH]c2ccccc12)C(=O)N[C@@H](CC(C)C)C(=O)N[C@@H](CC(C)C)C(=O)N[C@@H](CO)C(=O)N[C@@H](C)C(=O)NCC(=O)N1CCC[C@H]1C(=O)N[C@@H](CO)C(=O)N[C@@H](CO)C(=O)NCC(=O)N[C@@H](C)C(=O)N1CCC[C@H]1C(=O)N1CCC[C@H]1C(=O)N1CCC[C@H]1C(=O)N[C@@H](CO)C(N)=O)C(C)C)C(=O)O
- EC50, cAMP induction in HEK293 cells expressing human GIP R (human GIP receptor): 0.062 nM
- EC50, cAMP induction in HEK293 cells expressing human GLP-1 R (human GLP-1 receptor): 0.092 nM

B6: Compound 36 (peptide)
peptide: YAEGTFTSDYSIALDKKAQRAFVNWLVAAKPSSGAPPPS
modifications: Aib at 2 and 29; K(hexadecanoyl-isoGlu) at 17; C-terminal amide
- EC50, cAMP induction in HEK293 cells expressing human GLP-1 R (human GLP-1 receptor): 0.015 nM

B7: Compound 5 (peptide)
peptide: H-Y[Aib]EGTFTSDYSIYLDKKAQRAFVNWLLA[Aib]K-NH2
SMILES: CC[C@H](C)[C@H](NC(=O)[C@H](CO)NC(=O)[C@H](Cc1ccc(O)cc1)NC(=O)[C@H](CC(=O)O)NC(=O)[C@H](CO)NC(=O)[C@@H](NC(=O)[C@H](Cc1ccccc1)NC(=O)[C@@H](NC(=O)CNC(=O)[C@H](CCC(=O)O)NC(=O)C(C)(C)NC(=O)[C@@H](N)Cc1ccc(O)cc1)[C@@H](C)O)[C@@H](C)O)C(=O)N[C@@H](Cc1ccc(O)cc1)C(=O)N[C@@H](CC(C)C)C(=O)N[C@@H](CC(=O)O)C(=O)N[C@@H](CCCCN)C(=O)N[C@@H](CCCCN)C(=O)N[C@@H](C)C(=O)N[C@@H](CCC(N)=O)C(=O)N[C@@H](CCCNC(=N)N)C(=O)N[C@@H](C)C(=O)N[C@@H](Cc1ccccc1)C(=O)N[C@H](C(=O)N[C@@H](CC(N)=O)C(=O)N[C@@H](Cc1c[nH]c2ccccc12)C(=O)N[C@@H](CC(C)C)C(=O)N[C@@H](CC(C)C)C(=O)N[C@@H](C)C(=O)NC(C)(C)C(=O)N[C@@H](CCCCN)C(N)=O)C(C)C
- EC50, cAMP induction in HEK293 cells expressing human GIP R (human GIP receptor): 0.031 nM
- EC50, cAMP induction in HEK293 cells expressing human GLP-1 R (human GLP-1 receptor): 0.023 nM

B8: Compound 6 (peptide)
peptide: [pGlu]YAEGTFTSDYSIYLDKKAQRAFVNWLLA[Aib]K-NH2
SMILES: CC[C@H](C)[C@H](NC(=O)[C@H](CO)NC(=O)[C@H](Cc1ccc(O)cc1)NC(=O)[C@H](CC(=O)O)NC(=O)[C@H](CO)NC(=O)[C@@H](NC(=O)[C@H](Cc1ccccc1)NC(=O)[C@@H](NC(=O)CNC(=O)[C@H](CCC(=O)O)NC(=O)[C@H](C)NC(=O)[C@H](Cc1ccc(O)cc1)NC(=O)[C@@H]1CCC(=O)N1)[C@@H](C)O)[C@@H](C)O)C(=O)N[C@@H](Cc1ccc(O)cc1)C(=O)N[C@@H](CC(C)C)C(=O)N[C@@H](CC(=O)O)C(=O)N[C@@H](CCCCN)C(=O)N[C@@H](CCCCN)C(=O)N[C@@H](C)C(=O)N[C@@H](CCC(N)=O)C(=O)N[C@@H](CCCNC(=N)N)C(=O)N[C@@H](C)C(=O)N[C@@H](Cc1ccccc1)C(=O)N[C@H](C(=O)N[C@@H](CC(N)=O)C(=O)N[C@@H](Cc1c[nH]c2ccccc12)C(=O)N[C@@H](CC(C)C)C(=O)N[C@@H](CC(C)C)C(=O)N[C@@H](C)C(=O)NC(C)(C)C(=O)N[C@@H](CCCCN)C(N)=O)C(C)C
- EC50, cAMP induction in HEK293 cells expressing human GIP R (human GIP receptor): 0.27 nM
- EC50, cAMP induction in HEK293 cells expressing human GLP-1 R (human GLP-1 receptor): 0.97 nM
